The values that follow are results of earlier work, collected in patent US20150174267A1, “COMPOSITIONS AND METHODS FOR THE TRANSPORT OF THERAPEUTIC AGENTS” (Angiochem Inc., priority 2009, published 2015).

Where no end group is shown, it is not given here.

For data set [1] the following is noted: for efficient transport across the BBB: efficiently = at least as efficiently as Angiopep-6.
The subject of data set [2] is liver, lung, kidney, spleen, and muscle cells.

Turning to “Angiopep-5: targeting polypeptide of Table 1, SEQ ID NO:110 (RFFYGGSRGKRNNFRTEEY; not fully specified (N-terminus))”, the “efficient transport across the BBB” value in data set [1] is “cross the mammalian BBB efficiently”.

Consider `COc1cc([C@@H]2c3cc4c(cc3[C@@H](O[C@@H]3O[C@@H]5CO[C@@H](C)O[C@H]5[C@H](O)[C@H]3O)[C@H]3COC(=O)[C@H]23)OCO4)cc(OC)c1OP(=O)(O)O` [Etoposide phosphate, etoposide phosphate], for which the “water solubility compared to etoposide” value was “improved water solubility”.

Take “Angiopep-1: targeting polypeptide of Table 1, SEQ ID NO:67 (TFFYGGCRGKRNNFKTEEY; not fully specified (C-terminus))”: in data set [1], the “efficient transport across the BBB” value was “cross the mammalian BBB efficiently”.

With “Angiopep-7: targeting polypeptide of Table 1, SEQ ID NO:112 (TFFYGGSRGRRNNFRTEEY)”, in data set [1], the “efficient transport across the BBB” value is listed as “does not cross the BBB efficiently”. Also, the “efficient transport into particular cell types” value in data set [2] is “efficiently transported into liver, lung, kidney, spleen, and muscle cells”.

For the compound “Angiopep-6: targeting polypeptide of Table 1, SEQ ID NO:111 (TFFYGGSRGKRNNFRTEEY)”, the “efficient transport across the BBB” value in data set [1] was “cross the mammalian BBB efficiently”. Moreover, in data set [1] (relative to Angiopep-1 (250 nM), in situ brain perfusion assay of US 2009/0016959), the “transport across the BBB relative to that of Angiopep-1” value is recorded as 38.5%.

Regarding “Angiopep-2: targeting polypeptide of Table 1, SEQ ID NO:97”, the “efficient transport across the BBB” value in data set [1] is given as “cross the mammalian BBB efficiently”.

Regarding “Angiopep-4a: targeting polypeptide of Table 1, SEQ ID NO:108 (RFFYGGSRGKRNNFKTEEY)”, the “efficient transport across the BBB” value in data set [1] is reported as “cross the mammalian BBB efficiently”.

As for “Angiopep-4b: targeting polypeptide of Table 1, SEQ ID NO:109 (RFFYGGSRGKRNNFKTEEY; not fully specified (N-terminus))”, the “efficient transport across the BBB” value in data set [1] was “cross the mammalian BBB efficiently”.
